In US20150065376A1, “EXPRESSION CONSTRUCTS ENCODING G PROTEIN COUPLED RECEPTORS AND METHODS OF USE THEREOF” (priority 2013, published 2015):

Tests used:
[1] = molecular target: Cxcr4b; settings: value used for graph of free Cxcr4b versus free Sdf1, FIG. S3B; read-out: dissociation constant; cited from earlier work
[2] = molecular target: Cxcr7b (zebrafish CXCR7 ortholog) (zebrafish); experiment: cell-based or functional assay
[3] = molecular target: Cxcr4b-Kate2 fusion protein (zebrafish Sdf1-signaling sensor) (zebrafish); experiment: cell-based or functional assay
[4] = molecular target: Cxcr7a (zebrafish CXCR7 ortholog) (zebrafish); experiment: cell-based or functional assay
[5] = molecular target: T1, human CXCR4 (Homo sapiens, UniProt P61073); experiment: human Sdf1-signaling sensor in Flp-In T-REx 293 cell line (CXCR4-Kate2 internalization); format: cell-based; settings: Flp-In T-REx 293 cells, tetracycline-induced sensor, within 40 minutes, not in vehicle treated controls
T1 construct: Kate2 (TagRFP2, RFP variant); host or cells: Flp-In T-REx 293 (HEK 293), tetracycline-inducible, cell line number 4
T1 sequence (P61073 whole entry): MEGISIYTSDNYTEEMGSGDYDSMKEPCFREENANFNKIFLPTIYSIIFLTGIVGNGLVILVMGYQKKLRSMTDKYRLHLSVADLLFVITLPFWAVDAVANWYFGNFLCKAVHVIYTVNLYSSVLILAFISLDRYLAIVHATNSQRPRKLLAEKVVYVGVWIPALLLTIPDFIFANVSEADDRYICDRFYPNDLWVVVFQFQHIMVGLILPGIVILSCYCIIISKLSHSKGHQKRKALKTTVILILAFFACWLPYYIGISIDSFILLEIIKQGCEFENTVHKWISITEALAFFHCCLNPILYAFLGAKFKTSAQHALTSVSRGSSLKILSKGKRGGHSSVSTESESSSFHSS
Text: In order to test whether the human version of the Sdf1-signaling sensor responds to human SDF1 in a similar fashion to that of the fish version of the Sdf1-signaling sensor, the present inventors generated a Flp-In™ T-REx™ 293 cell line that expresses human CXCR4 fused to the RFP variant Kate2 followed by an IRES and a membrane-tethered GFP from a tetracycline-inducible promoter. Because the flippin technology allows one to generate a single copy transgene in a specific genomic location of HEK 293 cells, expression levels from the human Sdf1-signaling sensor are fairly uniform (FIGS. S4A and C).
Human CXCR4-Kate2-IRES-GFP-CaaX was inserted into the FRT sites in the genome of the Flp-In™ T-REx™ cell line using hygromycin selection (Invitrogen). Five different cell lines were established and cell line number 4 was used to characterize the activity of recombinant human SDF1 on the human Sdf1-signaling sensor. Expression of the human Sdf1-signaling sensor was induced using tetracycline and cells were imaged 24 hours after induction of expression using a Leica SP5 II confocal microscope.

[6] = test system: sdf1a; experiment: linearity of the Sdf1-signaling sensor, sdf1a morpholino injection; format: in vivo, zebrafish; settings: increasing amounts of morpholino injected, embryos imaged at 36 hpf, FIG. 3C
Text: Using ImageJ (NIH), a mask was applied to the GFP channel with a threshold to selectively mark the cell membranes of the cells that comprise the primordium. All values in the GFP and Kate2 channels outside of the mask were discarded and the photon counts from the Kate2 channel were divided by the photon counts from the GFP channel for each voxel to yield a Z-stack in which each value-containing voxel represents the ratio of Kate2 fluorescence to GFP fluorescence on the cell membrane. A custom ImageJ (NIH) macro language script was written in order to automate this analysis. The data was then averaged across the dorsal-ventral axis and placed in 1-micron bins in order to yield 100 data points for still images or 80 data points for time-lapse images that correspond to the first 100 μm or the first 80 μm, respectively, from the front tip of the primordium. […]
Tg(cxcr4b:cxcr4b-kate2-IRES-memGFP) embryos were injected alternately with 0, 0.5, 1.0 and 1.5 nl of 0.025 mM or 0.1 mM sdf1a morpholino solution (Doitsidou et al., 2002). […] Image collection and gradient quantification were performed as described above. The shift of the Sdf1-signaling gradient was determined by fitting the average ratios to a second order polynomial using the least squares regression in ImageJ (NIH) and extracting the y-intercept. […]

## Sdf1: chemokine Sdf1, free ligand binding reversibly to Cxcr4b
[1]
  Kd: 4 nM

## Sdf1a protein (zebrafish chemokine Sdf1a) (ligand)
[2]
  reduction in the local concentration of signaling competent Sdf1a in the rear of the primordium: 86%
  reduction in the steepness of the Sdf1-signaling gradient across the primordium in the absence of cxcr7b activity: 40%
[3]
  average FmemRed/FmemGreen ratio of the Sdf1-signaling sensor in the absence of Sdf1a protein: 2.6
  average FmemRed/FmemGreen ratio of the Sdf1-signaling sensor upon global Sdf1a over-expression: 0.2
  mean FmemRed/FmemGreen at the leading edge of wild-type primordia, 36 hpf: < 0.6
  mean FmemRed/FmemGreen in the rear of wild-type primordia, 36 hpf: 2.3
[4]
  reduction in the local concentration of signaling competent Sdf1a in the rear of the primordium: 86%
  reduction in the steepness of the Sdf1-signaling gradient across the primordium in the absence of cxcr7a activity: 31%

## Sdf1a-GFP (Sdf1a fused to green fluorescent protein) (ligand)
[2]
  fraction of total Sdf1a-GFP sequestered in the rear of the primordium: 1%
  reduction of Sdf1a-GFP protein levels on the stripe outside the primordium upon Cxcr7b over-expression: 29%
[4]
  fraction of total Sdf1a-GFP sequestered in the rear of the primordium: 1%

## recombinant human SDF1: recombinant human chemokine SDF1, ligand of CXCR4
[5]
  internalization of CXCR4-Kate2 / activation of the human Sdf1-signaling sensor: induces internalization of CXCR4-Kate2
[5]; listed as Recombinant human SDF1
  internalization of CXCR4-Kate2 / activation of the human Sdf1-signaling sensor: activates the human version of the Sdf1-signaling sensor

## sdf1a morpholino: translation-blocking morpholino against sdf1a, SEQ ID NO: 69 (Doitsidou et al., 2002) (ATCACTTTGAGATCCATGTTTGCA; all phosphorodiamidate morpholino (PMO))
[6]
  shift of FmemRed/FmemGreen ratios across the primordium: progressively shifts the FmemRed/FmemGreen ratios across the primordium to higher values
